pKd: −log10 of the molar value. Read-outs that look alike come from different tables or passages of the source.
How the values were obtained:
[1] = target: GDF8 (myostatin), mature (Homo sapiens) (UniProt O14793); conditions: TrpdU at each W (n in listing)
[2] = target: T1, GDF11, mature (Homo sapiens) (UniProt O95390); conditions: TrpdU at each W (n in listing)
T1 sequence: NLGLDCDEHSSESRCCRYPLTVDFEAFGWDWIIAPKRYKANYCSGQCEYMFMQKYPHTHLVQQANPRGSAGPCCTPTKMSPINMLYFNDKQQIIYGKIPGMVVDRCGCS

Sequence of GDF8 (myostatin), mature (Homo sapiens) (O14793 267-375): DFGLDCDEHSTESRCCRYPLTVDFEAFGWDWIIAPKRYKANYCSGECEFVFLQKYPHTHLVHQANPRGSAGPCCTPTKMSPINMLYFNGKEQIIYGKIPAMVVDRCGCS

Row | Sequence | pKd ([1]; with Z-block) | pKd ([1]; 0.1 uM Z-block, 1.32E-10 M in p223) | pKd ([2]; 0.1 uM Z-block, low binding plateau) | pKd ([2]; with Z-block)
1 | TGTTAGAGTCCTTTATGAGTCTAG [14583-49_29] | 9.64 |  |  | 
2 | CTCTGATACGGCCTTAGTGTTAGAGTCCTTTATGAGTCTAGACCACAACA [14583-49_3] |  | 9.89 | 8.95 | 
3 | CTCTGAACTTCTAATGTCTCTTGCATTTTATCGCATTGATTTCTCCAACA [14583-19_3] | 8.94 |  |  | 9.38

Source: patent US20180016581
